Source: paper PMC2149339
Several values for one entry are separate records, joined by “and”; a condition that tells them apart may be missing. Equal values may be shown once.

Key:
[1] = biological target: COOH-terminal region of dystrophin construct (C2979) (UniProt P11532); experiment: co-IP
[2] = biological target: COOH-terminal region of utrophin construct (TDRII) (UniProt P46939); experiment: co-IP
Sequence of UniProt P46939 (P46939 2753-3432): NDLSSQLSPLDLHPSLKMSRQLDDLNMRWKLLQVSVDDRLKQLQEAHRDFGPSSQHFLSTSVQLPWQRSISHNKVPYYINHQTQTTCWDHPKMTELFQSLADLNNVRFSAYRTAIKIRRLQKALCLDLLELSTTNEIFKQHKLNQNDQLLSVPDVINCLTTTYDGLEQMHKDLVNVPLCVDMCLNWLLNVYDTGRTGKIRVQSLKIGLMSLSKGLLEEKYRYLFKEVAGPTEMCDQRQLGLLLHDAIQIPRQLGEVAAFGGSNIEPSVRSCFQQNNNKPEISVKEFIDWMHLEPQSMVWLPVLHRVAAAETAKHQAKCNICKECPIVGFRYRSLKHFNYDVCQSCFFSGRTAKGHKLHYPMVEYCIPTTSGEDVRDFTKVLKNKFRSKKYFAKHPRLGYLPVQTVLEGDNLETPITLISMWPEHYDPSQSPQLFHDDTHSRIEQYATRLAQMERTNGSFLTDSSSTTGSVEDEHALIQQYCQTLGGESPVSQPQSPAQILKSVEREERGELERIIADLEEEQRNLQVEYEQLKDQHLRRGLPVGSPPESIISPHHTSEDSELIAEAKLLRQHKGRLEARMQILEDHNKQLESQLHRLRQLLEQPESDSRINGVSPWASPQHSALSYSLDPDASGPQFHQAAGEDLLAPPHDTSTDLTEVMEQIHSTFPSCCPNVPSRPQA

Sequence of UniProt P11532 (P11532 2980-3685): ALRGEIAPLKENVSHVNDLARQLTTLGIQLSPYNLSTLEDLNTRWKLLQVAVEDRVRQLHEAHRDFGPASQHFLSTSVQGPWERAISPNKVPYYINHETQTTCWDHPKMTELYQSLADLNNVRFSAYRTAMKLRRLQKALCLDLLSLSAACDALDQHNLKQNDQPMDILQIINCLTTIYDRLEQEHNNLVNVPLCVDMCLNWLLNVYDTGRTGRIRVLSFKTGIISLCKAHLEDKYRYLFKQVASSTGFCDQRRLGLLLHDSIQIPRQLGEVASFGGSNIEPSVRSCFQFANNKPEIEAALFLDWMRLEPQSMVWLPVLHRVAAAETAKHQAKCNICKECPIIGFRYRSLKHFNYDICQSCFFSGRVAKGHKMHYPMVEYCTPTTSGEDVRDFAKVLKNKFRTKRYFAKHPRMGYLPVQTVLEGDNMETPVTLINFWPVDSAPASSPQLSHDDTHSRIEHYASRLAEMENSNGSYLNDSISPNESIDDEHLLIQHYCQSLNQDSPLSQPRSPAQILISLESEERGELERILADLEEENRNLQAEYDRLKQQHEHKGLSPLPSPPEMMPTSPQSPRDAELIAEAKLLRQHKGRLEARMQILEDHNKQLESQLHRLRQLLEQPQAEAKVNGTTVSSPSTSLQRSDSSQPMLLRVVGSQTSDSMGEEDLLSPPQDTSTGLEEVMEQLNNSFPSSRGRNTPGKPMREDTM

“full-length α-dystrobrevin-1 construct (exons 1-21) (natural protein)” was tested, and the fold (+Ab over control without antibody), average of five experiments [1] was 3 fold, the fold (+Ab over control without antibody) [2] was 3.1 fold and 4 fold and 3 fold and the fold (+Ab over control without antibody), average of five experiments [2] was 3.3 fold.

With “α-dystrobrevin-2 construct (exons 1-17B) (natural protein)” the fold (+Ab over control without antibody) [1] was 3.7 fold and 4.2 fold and 3.3 fold, the fold (+Ab over control without antibody) [2] was 1.3 fold and 0.9 fold and 1 fold and the fold (+Ab over control without antibody), average of five experiments [2] was 1 fold.
